# Positions of bridges follow the written chain, without caps; N, C: chain ends. No end group written: not given here.
# Molecular target: T1, recombinant human PD-L1 protein (Acro Biosystems, cat #EP-101 assay pair) (human, UniProt Q9NZQ7 19-238)
# T1 construct: Bought protein; construct not described; also called hPD-L1; human PD-L1 (AcroBiosystems, cat #EP-101)
# Assay: ELISA, blocking of biotinylated human PD-1 binding to coated human PD-L1
# Experimental: (§1) Unbound protein was removed by washing twice with PBS (pH 7.2-7.4), 2% BSA was added for 1.5 h at 37° C. to block the plate. Specific concentrations of the peptides were dispensed into the appropriate wells and incubated for 2 h at 37° C. […] This was followed by the addition of streptavidin-HRP and chromogenic substrate (R&D systems). The color reaction was terminated with 2N H₂SO₄, absorbance was recorded at OD450 and referenced to OD540.
# T1 sequence (Q9NZQ7 19-238 limits assumed): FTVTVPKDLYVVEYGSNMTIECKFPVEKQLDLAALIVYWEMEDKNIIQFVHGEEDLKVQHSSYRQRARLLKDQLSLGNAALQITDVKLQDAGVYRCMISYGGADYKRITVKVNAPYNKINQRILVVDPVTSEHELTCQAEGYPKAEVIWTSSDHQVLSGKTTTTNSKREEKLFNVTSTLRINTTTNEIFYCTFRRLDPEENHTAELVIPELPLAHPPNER
row,Molecule,IC50
1,"CHRSYYCWNLNT (disulfide 1-7, Cyclic variant of CLP002) [CLP2C21]",440 nM
2,"CHRSYYTWNLNC (disulfide 1-12, Cyclic variant of CLP002) [CLP2C14]",180 nM

# Molecular target: T2, recombinant human PD-L1 extracellular domain (ECD) protein (cat #FCL0784B, G&P Biosciences) (human, UniProt Q9NZQ7 19-238)
# T2 construct: extracellular domain; Bought protein; also called hPD-L1 protein; human PD-L1 protein
# T2 sequence (Q9NZQ7 19-238): as the sequence (Q9NZQ7 19-238 limits assumed) above
# Assay: blocking of the human CD80/PD-L1 interaction
row,Molecule,IC50
1,"WHFSYNWRWLPP (not fully specified, 12-mer from phage display) [CLP003 peptide]",1620 nM
2,"WHRSYYTWNLNT (not fully specified, 12-mer from phage display) [CLP002 peptide]",2450 nM

# Molecular target: T3, mouse PD-L1 protein (G&P Biosciences, cat #FCL3502B) (mouse, UniProt Q9EP73 19-239, limits assumed)
# T3 construct: Bought protein; construct not described; also called mPD-L1 protein
# T3 sequence (Q9EP73 19-239 limits assumed): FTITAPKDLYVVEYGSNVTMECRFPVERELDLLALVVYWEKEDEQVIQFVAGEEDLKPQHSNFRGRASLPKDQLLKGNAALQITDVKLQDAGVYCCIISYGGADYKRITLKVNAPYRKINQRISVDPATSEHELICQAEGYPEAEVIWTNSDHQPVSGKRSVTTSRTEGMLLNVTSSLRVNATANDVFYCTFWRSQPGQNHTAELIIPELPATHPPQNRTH
# Assay: ELISA, blocking of mouse PD-1 binding to coated mouse PD-L1 protein
# Experimental: (§2) Various concentrations of peptides were loaded into the wells and incubated for 1 hour at room temperature. […] Streptavidin-HRP (R&D systems) and chromogenic substrate were added into the wells. OD₄₅₀ was then recorded and referenced to OD₅₄₀.
Molecule,Blocking Efficiency (%),IC50
"WHFSYNWRWLPP (not fully specified, 12-mer from phage display) [CLP003 peptide]",46%,2260 nM
"DYHDPSLPTLRK (not fully specified, 12-mer from phage display) [CLP004 peptide]",48%,1910 nM
"HYPFRPHANQAS (not fully specified, 12-mer from phage display) [CLP001 peptide]",34%,2430 nM
"WHRSYYTWNLNT (not fully specified, 12-mer from phage display) [CLP002 peptide]",68%,1910 nM

# Molecular target: mouse PD-L1 protein (G&P Biosciences, cat #FCL3502B) (mouse) (UniProt Q9EP73)
# Sequence (Q9EP73 19-239 limits assumed): as above
# Assay: ELISA, blocking of mouse PD-1 binding to mouse PD-L1 protein, 10 µM
row,Molecule,blocking efficiency at 10 µM
1,"anti-mouse PD-L1 antibody (BioXcell, 10F.9G2)",92%

# Molecular target: T2, recombinant human PD-L1 extracellular …
# Assay: SPR, human PD-L1 ECD immobilised on CM5 chip
# Experimental: (§3) Evaluation of Binding Kinetics and Affinity By Surface Plasmon Resonance (SPR). […] PD-L1 protein was diluted to 10 μg/mL with sodium acetate buffer (pH 5.0, GE Healthcare, PA) and covalently coated onto a CM5 sensor chip (CM Dextran Sensor Chip, Biosensing Instrument) using the standard Amine Coupling Kit (GE Healthcare, PA). Approximately 6500 RU of PD-L1 protein were immobilized onto the chip. A second channel was used as a reference. HBS-EP+ buffer (GE Healthcare) was employed at a flow rate of 60 μL/min. […] The CM5 sensor chip was regenerated with 10 mM NaOH for 20 seconds. The results were analyzed using the software of Bi data analysis software.
# The PD-L1 protein was immobilized on a CM5 golden chip by the direct amine coupling method. […] In a recent study, scientists constructed several chimeric antigen receptor (CAR) T cells with different affinities to ICAM-1.
Molecule,Kd,koff,kon
"WHFSYNWRWLPP (not fully specified, 12-mer from phage display) [CLP003 peptide]",117 nM,0.00162 s⁻¹,22600 M⁻¹ s⁻¹
"DYHDPSLPTLRK (not fully specified, 12-mer from phage display) [CLP004 peptide]",544 nM,0.00275 s⁻¹,5140 M⁻¹ s⁻¹
"HYPFRPHANQAS (not fully specified, 12-mer from phage display) [CLP001 peptide]",534 nM,0.00281 s⁻¹,5190 M⁻¹ s⁻¹
"WHRSYYTWNLNT (not fully specified, 12-mer from phage display) [CLP002 peptide]",366 nM,0.00145 s⁻¹,4520 M⁻¹ s⁻¹

# Molecular target: T1, recombinant human PD-L1 protein (Acro …)
# Assay: ELISA, blocking of biotinylated human PD-1 binding to coated human PD-L1, 10 µM
# Experimental: as §1
# (§4) In this Example, various properties of the peptides of SEQ ID NO:5, SEQ ID NO:6 and SEQ ID NO:7 were evaluated. The procedures for generating these values are described above in the beginning of the Examples section.
row,Molecule,% Blocking efficiency at 10 µM (ELISA) hPD-L1
1,WHRSYYTWN (Truncated form of CLP002 (9 residues)) [CLP2TR3],80%
2,"CHRSYYCWNLNT (disulfide 1-7, Cyclic variant of CLP002) [CLP2C21]",85.9%
3,"CHRSYYTWNLNC (disulfide 1-12, Cyclic variant of CLP002) [CLP2C14]",75%

# Molecular target: T2, recombinant human PD-L1 extracellular …
# Assay: blocking of the human CD80/PD-L1 interaction, 10 µM
row,Molecule,blocking efficiency at 10 µM
1,"WHFSYNWRWLPP (not fully specified, 12-mer from phage display) [CLP003 peptide]",~48%
2,"DYHDPSLPTLRK (not fully specified, 12-mer from phage display) [CLP004 peptide]",~27%
3,"HYPFRPHANQAS (not fully specified, 12-mer from phage display) [CLP001 peptide]",~17%
4,"WHRSYYTWNLNT (not fully specified, 12-mer from phage display) [CLP002 peptide]",~48%

# Molecular target: T2, recombinant human PD-L1 extracellular …
# Assay: ELISA, blocking of PD-1 binding to coated human PD-L1 protein
# Experimental: as §2
Molecule,Blocking Efficiency (%),IC50
"WHFSYNWRWLPP (not fully specified, 12-mer from phage display) [CLP003 peptide]",60%,2220 nM
"DYHDPSLPTLRK (not fully specified, 12-mer from phage display) [CLP004 peptide]",52%,1170 nM
"HYPFRPHANQAS (not fully specified, 12-mer from phage display) [CLP001 peptide]",0%,–
"WHRSYYTWNLNT (not fully specified, 12-mer from phage display) [CLP002 peptide]",85%,2170 nM

# Molecular target: T2, recombinant human PD-L1 extracellular …
# Assay: PD1/PD-L1 blocking assay of Table 5 (format not stated)
row,Molecule,IC50
1,"CHRSYYCWNLNT (disulfide 1-7, Cyclic variant of CLP002) [CLP2C21]",6 nM
2,"CHRSYYTWNLNC (disulfide 1-12, Cyclic variant of CLP002) [CLP2C14]",5 nM

# Molecular target: T4, mouse PD-L1 (Acro Biosystems, cat #PD1-M5220) (mouse, UniProt Q9EP73 19-238)
# T4 construct: Bought protein; construct not described; also called mPD-L1
# T4 sequence (Q9EP73 19-238 limits assumed): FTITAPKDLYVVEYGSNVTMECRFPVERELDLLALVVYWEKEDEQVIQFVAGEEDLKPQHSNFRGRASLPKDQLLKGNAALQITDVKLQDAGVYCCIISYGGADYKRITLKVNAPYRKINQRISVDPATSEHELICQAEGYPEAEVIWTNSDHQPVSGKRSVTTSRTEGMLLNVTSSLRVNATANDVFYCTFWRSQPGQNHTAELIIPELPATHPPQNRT
# Assay: ELISA, blocking of biotinylated mouse PD-1 binding to coated mouse PD-L1
# Experimental: as §1, §4
row,Molecule,IC50
1,"CHRSYYCWNLNT (disulfide 1-7, Cyclic variant of CLP002) [CLP2C21]",460 nM
2,"CHRSYYTWNLNC (disulfide 1-12, Cyclic variant of CLP002) [CLP2C14]",550 nM

# Molecular target: T5, mouse PD-L1 on 4T1 cancer cells (mouse, UniProt Q9EP73 19-290)
# T5 construct: whole, on cells; also called mouse cancer cell line 4T1
# T5 sequence (Q9EP73 19-290): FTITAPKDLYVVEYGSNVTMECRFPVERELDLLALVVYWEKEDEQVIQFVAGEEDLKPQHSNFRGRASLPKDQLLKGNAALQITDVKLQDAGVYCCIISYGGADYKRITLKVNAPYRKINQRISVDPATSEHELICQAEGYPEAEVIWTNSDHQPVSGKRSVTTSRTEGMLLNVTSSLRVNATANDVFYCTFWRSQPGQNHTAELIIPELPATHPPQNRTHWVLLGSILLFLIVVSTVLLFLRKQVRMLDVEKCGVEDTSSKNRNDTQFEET
# Assay: blocking of mouse PD-1 binding to 4T1 cells
Molecule,Blocking Efficiency (%),IC50
"WHFSYNWRWLPP (not fully specified, 12-mer from phage display) [CLP003 peptide]",50%,1000 nM
"DYHDPSLPTLRK (not fully specified, 12-mer from phage display) [CLP004 peptide]",34%,730 nM
"HYPFRPHANQAS (not fully specified, 12-mer from phage display) [CLP001 peptide]",35%,910 nM
"WHRSYYTWNLNT (not fully specified, 12-mer from phage display) [CLP002 peptide]",61%,2440 nM

# Molecular target: T2, recombinant human PD-L1 extracellular …
# Assay: SPR, PD-L1 immobilised
# Experimental: as §3
row,Molecule,Kd
1,WHRSYYTWN (Truncated form of CLP002 (9 residues)) [CLP2TR3],258 nM
2,"CHRSYYCWNLNT (disulfide 1-7, Cyclic variant of CLP002) [CLP2C21]",124 nM
3,"CHRSYYTWNLNC (disulfide 1-12, Cyclic variant of CLP002) [CLP2C14]",2.78 nM

# Molecular target: T6, bovine serum albumin (bovine, UniProt P02769 25-607)
# T6 construct: Specificity control in SPR; also called BSA
# T6 sequence (P02769 25-607 limits assumed): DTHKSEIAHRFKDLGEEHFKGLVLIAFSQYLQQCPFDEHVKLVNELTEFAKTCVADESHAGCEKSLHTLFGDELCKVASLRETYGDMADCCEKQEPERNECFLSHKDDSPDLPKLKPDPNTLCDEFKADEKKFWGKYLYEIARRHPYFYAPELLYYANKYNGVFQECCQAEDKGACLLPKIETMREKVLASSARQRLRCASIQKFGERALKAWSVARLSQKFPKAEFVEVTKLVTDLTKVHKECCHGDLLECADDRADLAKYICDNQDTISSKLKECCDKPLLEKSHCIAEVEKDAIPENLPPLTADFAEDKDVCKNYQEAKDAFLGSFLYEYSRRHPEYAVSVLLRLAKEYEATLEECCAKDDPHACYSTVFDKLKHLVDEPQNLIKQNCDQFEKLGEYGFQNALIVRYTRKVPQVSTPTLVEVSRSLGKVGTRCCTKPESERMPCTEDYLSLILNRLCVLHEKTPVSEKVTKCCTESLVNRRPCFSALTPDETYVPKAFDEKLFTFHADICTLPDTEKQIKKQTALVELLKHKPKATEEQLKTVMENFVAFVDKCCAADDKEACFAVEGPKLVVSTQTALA
# Assay: SPR, albumin (BSA) immobilised, peptide series injected
# Experimental: as §3
# Nonspecific binding of the peptides against bovine serum albumin (BSA) using SPR was measured. […] MCF-7 human cancer cells are PD-L1 deficient and used as a negative control in this study. […] Results are represented as the mean±SD (n=3).
row,Molecule,binding result
1,"WHFSYNWRWLPP (not fully specified, 12-mer from phage display) [CLP003 peptide]",no binding
2,"DYHDPSLPTLRK (not fully specified, 12-mer from phage display) [CLP004 peptide]",no binding
3,"HYPFRPHANQAS (not fully specified, 12-mer from phage display) [CLP001 peptide]",no binding
4,"WHRSYYTWNLNT (not fully specified, 12-mer from phage display) [CLP002 peptide]",no binding

# Molecular target: T1, recombinant human PD-L1 protein (Acro …)
# Assay: competitive SPR, peptide preincubated with human PD-L1, injected over immobilised PD-1
# Experimental: BI-4500A SPR and a CM-5 sensor chip pre-functionalized with streptavidin (Biosensing Instrument Inc., Tempe, Ariz.) were employed for the SPR analysis. […] Data was analyzed with SPR Data Analysis Version 3.8.4 (Biosensing Instrument Inc., Tempe, Ariz.).
# as §4
row,Molecule,IC50
1,"CHRSYYCWNLNT (disulfide 1-7, Cyclic variant of CLP002) [CLP2C21]",143 nM
2,"CHRSYYTWNLNC (disulfide 1-12, Cyclic variant of CLP002) [CLP2C14]",119 nM

# Molecular target: T6, bovine serum albumin
# Assay: SPR, BSA immobilised
row,Molecule,Kd
1,WHRSYYTWN (Truncated form of CLP002 (9 residues)) [CLP2TR3],2050 nM
2,"CHRSYYCWNLNT (disulfide 1-7, Cyclic variant of CLP002) [CLP2C21]",1240 nM
3,"CHRSYYTWNLNC (disulfide 1-12, Cyclic variant of CLP002) [CLP2C14]",408 nM

# Molecular target: T3, mouse PD-L1 protein (G&P Biosciences, …)
# Assay: blocking of the mouse PD-1/PD-L1 interaction (text value, differs from Table 3); text of paragraph 79, not Table 3
# Experimental: as §2
row,Molecule,IC50
1,"WHFSYNWRWLPP (not fully specified, 12-mer from phage display) [CLP003 peptide]",1960 nM
2,"WHRSYYTWNLNT (not fully specified, 12-mer from phage display) [CLP002 peptide]",1510 nM

# Molecular target: T7, human PD-L1 on DU-145 cancer cells (human, UniProt Q9NZQ7 19-290)
# T7 construct: whole, on cells; Endogenous PD-L1 of a PD-L1-positive human cancer cell line
# T7 sequence (Q9NZQ7 19-290): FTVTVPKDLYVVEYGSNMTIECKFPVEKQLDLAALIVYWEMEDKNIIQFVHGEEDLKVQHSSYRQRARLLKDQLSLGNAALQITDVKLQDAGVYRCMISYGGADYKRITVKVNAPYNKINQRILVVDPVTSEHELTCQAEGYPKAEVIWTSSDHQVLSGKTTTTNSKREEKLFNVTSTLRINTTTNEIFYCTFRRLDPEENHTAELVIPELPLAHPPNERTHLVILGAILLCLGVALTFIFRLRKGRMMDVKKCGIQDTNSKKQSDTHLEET
# Assay: blocking of PD-1 binding to DU-145 cells
Molecule,Blocking Efficiency (%),IC50
"WHFSYNWRWLPP (not fully specified, 12-mer from phage display) [CLP003 peptide]",56%,3050 nM
"DYHDPSLPTLRK (not fully specified, 12-mer from phage display) [CLP004 peptide]",60%,200 nM
"HYPFRPHANQAS (not fully specified, 12-mer from phage display) [CLP001 peptide]",0%,–
"WHRSYYTWNLNT (not fully specified, 12-mer from phage display) [CLP002 peptide]",80%,1430 nM

# Molecular target: T2, recombinant human PD-L1 extracellular …
# Assay: PD1/PD-L1 blocking assay of Table 5 (format not stated), 10 µM
row,Molecule,% Blocking efficiency at 10 µM
1,WHRSYYTWN (Truncated form of CLP002 (9 residues)) [CLP2TR3],80%
2,"CHRSYYCWNLNT (disulfide 1-7, Cyclic variant of CLP002) [CLP2C21]",78%
3,"CHRSYYTWNLNC (disulfide 1-12, Cyclic variant of CLP002) [CLP2C14]",75%
